Results published in paper doi:10.1101/2021.03.14.433363.
Where two headings read alike, the source gives them in different places.

What was measured:
RIG-I CTD [1] = biological target: T1, RIG-I CTD (human, UniProt O95786 802-925); assay: limited trypsin proteolysis protection
T1 sequence: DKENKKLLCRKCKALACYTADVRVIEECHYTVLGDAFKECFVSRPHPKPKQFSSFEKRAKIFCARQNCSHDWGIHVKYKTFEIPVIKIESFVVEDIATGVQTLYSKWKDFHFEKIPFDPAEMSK

DRH-3 CTD [2] = biological target: T2, DRH-3 CTD (Caenorhabditis elegans, UniProt Q93413 940-1108); assay: fluorescence polarization
T2 sequence: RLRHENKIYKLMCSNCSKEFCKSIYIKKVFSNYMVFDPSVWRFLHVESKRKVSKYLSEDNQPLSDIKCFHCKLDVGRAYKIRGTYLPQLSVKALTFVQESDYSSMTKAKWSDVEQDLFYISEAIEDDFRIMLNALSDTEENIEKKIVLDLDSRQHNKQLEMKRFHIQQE

DRH-3 full length = biological target: T3, DRH-3 full length (Caenorhabditis elegans, UniProt Q93413 1-1119); assay: HDX-MS
T3 sequence: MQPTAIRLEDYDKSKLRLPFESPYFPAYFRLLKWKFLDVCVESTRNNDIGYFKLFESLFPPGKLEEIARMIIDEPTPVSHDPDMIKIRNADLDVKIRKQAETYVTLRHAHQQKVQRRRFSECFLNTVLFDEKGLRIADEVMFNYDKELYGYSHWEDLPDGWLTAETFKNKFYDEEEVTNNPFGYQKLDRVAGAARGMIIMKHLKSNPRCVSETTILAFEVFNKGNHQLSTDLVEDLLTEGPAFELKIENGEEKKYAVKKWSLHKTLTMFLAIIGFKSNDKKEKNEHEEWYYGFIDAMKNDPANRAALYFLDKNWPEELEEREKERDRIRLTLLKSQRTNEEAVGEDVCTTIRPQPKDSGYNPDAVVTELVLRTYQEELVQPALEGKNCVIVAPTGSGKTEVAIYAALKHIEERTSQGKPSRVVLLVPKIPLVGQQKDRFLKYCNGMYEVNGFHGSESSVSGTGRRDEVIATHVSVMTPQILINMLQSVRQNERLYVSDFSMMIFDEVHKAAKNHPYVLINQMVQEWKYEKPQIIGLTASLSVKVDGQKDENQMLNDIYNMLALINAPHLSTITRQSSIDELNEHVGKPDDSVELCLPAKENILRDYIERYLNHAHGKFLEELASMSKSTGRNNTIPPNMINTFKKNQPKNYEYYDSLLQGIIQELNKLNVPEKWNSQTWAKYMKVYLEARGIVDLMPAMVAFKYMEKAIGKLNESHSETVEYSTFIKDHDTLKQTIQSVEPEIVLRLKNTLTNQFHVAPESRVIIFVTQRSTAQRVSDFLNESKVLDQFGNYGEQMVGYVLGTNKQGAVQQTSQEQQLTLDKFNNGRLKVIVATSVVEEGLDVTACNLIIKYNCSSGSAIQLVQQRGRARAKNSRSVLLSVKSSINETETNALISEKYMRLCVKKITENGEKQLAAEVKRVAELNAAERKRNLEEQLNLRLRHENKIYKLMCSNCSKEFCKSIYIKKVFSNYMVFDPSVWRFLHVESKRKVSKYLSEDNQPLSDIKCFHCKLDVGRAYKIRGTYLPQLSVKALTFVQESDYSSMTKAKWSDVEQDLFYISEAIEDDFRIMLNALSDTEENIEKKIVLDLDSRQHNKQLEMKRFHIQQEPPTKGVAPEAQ

DRH-3 CTD [3] = biological target: T2, DRH-3 CTD; assay: crystal structure
RIG-I CTD [4] = biological target: T1, RIG-I CTD; assay: limited trypsin proteolysis protection; remark: listed apart in the source

B1: 5'-ppp 12-mer dsRNA with 3'-overhang (dsRNA)
RNA 1: GGCGCGCGCGCCC
RNA 2: GGCGCGCGCGCCC
modifications: 5'-triphosphate
- binding result (RIG-I CTD [1]): binds

Binder: UUUAUAUAUUAGGACCGCUCGGCGGUCCUAAUAUAUAAA (structured_RNA, 5'-OH) [FAM-labelled 5'-OH 18-mer hairpin RNA]
- Kd (DRH-3 CTD [2]): 325 ± 70.1 nM

Binder: GGACGUACGUUUCGACGUACGUCC (structured_RNA, 5'-triphosphate) [3p10L (SLR10)]
- binding result (DRH-3 full length): binds

Binder: GGCCGCCC (ssRNA, 5'-triphosphate) [5'-ppp 8-mer ssRNA]
- binding result (DRH-3 CTD [3]): binds

B2: 5'-ppp 12-mer dsRNA (dsRNA)
RNA 1: GGCGCGCGCGCC
RNA 2: GGCGCGCGCGCC
modifications: 5'-triphosphate
- binding result (RIG-I CTD [4]): binds
- binding result (DRH-3 CTD [3]): binds
